Measurements published in article PMC10175746.

Target: pyruvate kinase isoform M2 (PKM2) (mouse (endogenous in Th17 cells)) (UniProt P52480)

Sequence of pyruvate kinase isoform M2 (PKM2), P52480 1-531 (enzyme; other documents disagree on this pair) (P52480 whole entry, canonical isoform): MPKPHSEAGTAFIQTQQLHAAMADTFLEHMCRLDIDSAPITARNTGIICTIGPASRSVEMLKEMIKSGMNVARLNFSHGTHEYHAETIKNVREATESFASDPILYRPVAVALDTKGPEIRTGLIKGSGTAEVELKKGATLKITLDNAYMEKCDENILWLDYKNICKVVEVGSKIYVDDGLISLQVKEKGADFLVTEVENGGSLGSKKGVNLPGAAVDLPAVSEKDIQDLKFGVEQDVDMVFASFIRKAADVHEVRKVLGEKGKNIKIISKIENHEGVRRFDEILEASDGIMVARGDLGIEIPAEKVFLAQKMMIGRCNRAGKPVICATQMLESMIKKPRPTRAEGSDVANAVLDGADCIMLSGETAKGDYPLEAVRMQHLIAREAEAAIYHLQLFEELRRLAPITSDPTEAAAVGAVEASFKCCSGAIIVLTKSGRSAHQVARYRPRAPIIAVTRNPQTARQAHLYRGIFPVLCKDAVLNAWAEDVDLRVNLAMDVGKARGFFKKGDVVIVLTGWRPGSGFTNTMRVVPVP

stoichiometry N: 4
Substance: pyruvate kinase isoform M2 (PKM2), P52480 1-531 (enzyme; other documents disagree on this pair)
